These results are taken from patent US20180155413A1 (AstraZeneca / MedImmune, published 2018).

The chains are these.
B1: FBD94 IgG (antibody, V domains shown)
VH: EVQLVESGGGLVQPGRSLRLSCAVSGFIFEDYAINWVRQAPGKGLEWVSIISWDSGRIGYADSVRGRFTISRDNAKNSSFLQMNSLRPEDTAVYYCVKDMLAYYYDGSGIRYNLYGMDVWGQGTTVTVSS
VL: EIVLTQSPATLSLSPGERATLSCRASRSITTFLAWYQQKPGQAPRLLIYDASNRATGVPARFSGSGSGTDFTLTINSLEPDDFAIYYCQQRDHWPPIFGQGTRLEIK
B2: FY1/94 BiS2 100/44 (bispecific antibody)
light: DIQMTQSPSSLSASVGDRVTITCRTSQSLSSYLHWYQQKPGKAPKLLIYAASSLQSGVPSRFSGSGSGTDFTLTISSLQPEDFATYYCQQSRTFGQGTKVEIKRTVAAPSVFIFPPSDEQLKSGTASVVCLLNNFYPREAKVQWKVDNALQSGNSQESVTEQDSKDSTYSLSSTLTLSKADYEKHKVYACEVTHQGLSSPVTKSFNRGEC
heavy: not shown
B3: FY1/39 BiS3 100/44 (bispecific antibody)
light: DIQMTQSPSSLSASVGDRVTITCRTSQSLSSYLHWYQQKPGKAPKLLIYAASSLQSGVPSRFSGSGSGTDFTLTISSLQPEDFATYYCQQSRTFGQGTKVEIKRTVAAPSVFIFPPSDEQLKSGTASVVCLLNNFYPREAKVQWKVDNALQSGNSQESVTEQDSKDSTYSLSSTLTLSKADYEKHKVYACEVTHQGLSSPVTKSFNRGEC
heavy: not shown
B4: FY1/94 BiS4 100/44 (bispecific antibody)
light: DIQMTQSPSSLSASVGDRVTITCRTSQSLSSYLHWYQQKPGKAPKLLIYAASSLQSGVPSRFSGSGSGTDFTLTISSLQPEDFATYYCQQSRTFGQGTKVEIKRTVAAPSVFIFPPSDEQLKSGTASVVCLLNNFYPREAKVQWKVDNALQSGNSQESVTEQDSKDSTYSLSSTLTLSKADYEKHKVYACEVTHQGLSSPVTKSFNRGEC
heavy: not shown
B5: FY1/39 BiS2 100/44 (bispecific antibody)
light: DIQMTQSPSSLSASVGDRVTITCRTSQSLSSYLHWYQQKPGKAPKLLIYAASSLQSGVPSRFSGSGSGTDFTLTISSLQPEDFATYYCQQSRTFGQGTKVEIKRTVAAPSVFIFPPSDEQLKSGTASVVCLLNNFYPREAKVQWKVDNALQSGNSQESVTEQDSKDSTYSLSSTLTLSKADYEKHKVYACEVTHQGLSSPVTKSFNRGEC
heavy: not shown
B6: FY1/39 BiS4 100/44 (bispecific antibody)
light: DIQMTQSPSSLSASVGDRVTITCRTSQSLSSYLHWYQQKPGKAPKLLIYAASSLQSGVPSRFSGSGSGTDFTLTISSLQPEDFATYYCQQSRTFGQGTKVEIKRTVAAPSVFIFPPSDEQLKSGTASVVCLLNNFYPREAKVQWKVDNALQSGNSQESVTEQDSKDSTYSLSSTLTLSKADYEKHKVYACEVTHQGLSSPVTKSFNRGEC
heavy: not shown
B7: FY1/39 BiS4 43/105 (bispecific antibody)
light: DIQMTQSPSSLSASVGDRVTITCRTSQSLSSYLHWYQQKPGKAPKLLIYAASSLQSGVPSRFSGSGSGTDFTLTISSLQPEDFATYYCQQSRTFGQGTKVEIKRTVAAPSVFIFPPSDEQLKSGTASVVCLLNNFYPREAKVQWKVDNALQSGNSQESVTEQDSKDSTYSLSSTLTLSKADYEKHKVYACEVTHQGLSSPVTKSFNRGEC
heavy: not shown
B8: GL20/39FTL BiS4 43/105 (bispecific antibody)
light: DIQMTQSPSSLSASVGDRVTITCRTSQSLSSYTHWYQQKPGKAPKLLIYAASSRGSGVPSRFSGSGSGTDFTLTISSLQPEDFATYYCQQSRTFGQGTKVEIKRTVAAPSVFIFPPSDEQLKSGTASVVCLLNNFYPREAKVQWKVDNALQSGNSQESVTEQDSKDSTYSLSSTLTLSKADYEKHKVYACEVTHQGLSSPVTKSFNRGEC
heavy: not shown
B9: GL20/39 BiS4 100/44 (bispecific antibody)
light: DIQMTQSPSSLSASVGDRVTITCRTSQSLSSYTHWYQQKPGKAPKLLIYAASSRGSGVPSRFSGSGSGTDFTLTISSLQPEDFATYYCQQSRTFGQGTKVEIKRTVAAPSVFIFPPSDEQLKSGTASVVCLLNNFYPREAKVQWKVDNALQSGNSQESVTEQDSKDSTYSLSSTLTLSKADYEKHKVYACEVTHQGLSSPVTKSFNRGEC
heavy: not shown
B10: FY1 IgG (antibody, V domains shown)
VH: QVQLQESGPGLVKPSQTLSLTCAISGDSVSSNNAVWNWIRQSPSRGLEWLGRTYYRSKWYNDYAESVKSRITVNPDTSKNQFSLHLKSVTPEDTAVFYCVRSGHITVFGVNVDAFDMWGQGTMVTVSS
VL: DIQMTQSPSSLSASVGDRVTITCRTSQSLSSYLHWYQQKPGKAPKLLIYAASSLQSGVPSRFSGSGSGTDFTLTISSLQPEDFATYYCQQSRTFGQGTKVEIK
B11: GL20/39FTL BiS4 100/44 (bispecific antibody)
light: DIQMTQSPSSLSASVGDRVTITCRTSQSLSSYTHWYQQKPGKAPKLLIYAASSRGSGVPSRFSGSGSGTDFTLTISSLQPEDFATYYCQQSRTFGQGTKVEIK
heavy (part 1 of 2): QVQLQQSGPGLVKPSQTLSLTCAISGDSVSSYNAVWNWIRQSPSRGLEWLGRTYYRSGWYNDYAESVKSRITINPDTSKNQFSLQLNSVTPEDTAVYYCARSGHITVFGVNVDAFDMWGQGTMVTVSS
heavy (part 2 of 2): DIQMTQSPSSVSASVGDRVTITCRASQDISTWLAWYQQKPGKAPKLLIYAASSLQSGVPSRFSGSGSGTDFTLTISSLQPEDFATYYCQQANSFPPTFGCGTKLEIKGGGGSGGGGSGGGGSGGGGSEVQLVESGGGLVKPGGSLRLSCAASGFTFLNAWMSWVRQAPGKCLEWVGRIKSNTDGGTTDYAAPVKGRFTISRDDSKNTLYLQMSSLKTEDTAVYYCTTDGPYSDDFRSGYAARYRYFGMDVWGQGTTVTVSS
B12: GL20 IgG (antibody, V domains shown)
VH: QVQLQQSGPGLVKPSQTLSLTCAISGDSVSSYNAVWNWIRQSPSRGLEWLGRTYYRSGWYNDYAESVKSRITINPDTSKNQFSLQLNSVTPEDTAVYYCARSGHITVFGVNVDAFDMWGQGTMVTVSS
VL: DIQMTQSPSSLSASVGDRVTITCRTSQSLSSYTHWYQQKPGKAPKLLIYAASSRGSGVPSRFSGSGSGTDFTLTISSLQPEDFATYYCQQSRTFGQGTKVEIK
B13: FBC39 IgG (antibody, V domains shown)
VH: EVQLVVSGGGLVKPGGSLRLSCAASGLSFLNAWMSWVRQAPGKGLEWVGRIKSNTDGGTTDYAAPVKGRFSISRDDSKNMLFLHMSSLRTEDTAVYYCATDGPYSDDFRSGYAARYRYFGMDVWGQGTTVTVSS
VL: DIQMTQSPSSVSASVGDRVTITCRASQDISTWLAWYQQKPGKAPKLLIYAASSLQSGVPSRFSGSGSGTDFTLTISSLQPEDFATYFCQQANSFPPTFGQGTKLEIK
B14: FY1/39 BiS1 100/44 (bispecific antibody)
light: DIQMTQSPSSVSASVGDRVTITCRASQDISTWLAWYQQKPGKAPKLLIYAASSLQSGVPSRFSGSGSGTDFTLTISSLQPEDFATYFCQQANSFPPTFGCGTKLEIKGGGGSGGGGSGGGGSGGGGSEVQLVVSGGGLVKPGGSLRLSCAASGLSFLNAWMSWVRQAPGKCLEWVGRIKSNTDGGTTDYAAPVKGRFSISRDDSKNMLFLHMSSLRTEDTAVYYCATDGPYSDDFRSGYAARYRYFGMDVWGQGTTVTVSSGGGGSGGGGSDIQMTQSPSSLSASVGDRVTITCRTSQSLSSYLHWYQQKPGKAPKLLIYAASSLQSGVPSRFSGSGSGTDFTLTISSLQPEDFATYYCQQSRTFGQGTKVEIKRTVAAPSVFIFPPSDEQLKSGTASVVCLLNNFYPREAKVQWKVDNALQSGNSQESVTEQDSKDSTYSLSSTLTLSKADYEKHKVYACEVTHQGLSSPVTKSFNRGEC
heavy: not shown

The EC50 is the midpoint of the concentration-response curve.

This assay has as its target recombinant HA derived from A/California/07/2009 H1N1 (influenza A virus, UniProt P26140 18-529). Put plainly: ELISA, rHA coated on plate.
With B1, the binding result was “no binding”.

B2: the EC50 is 6.83 nM.

Take B3: the EC50 worked out at 1.52 nM.

Turning to B4, the EC50 turned out to be 1.53 nM.

Regarding B5, the concentration giving a half-maximal response (EC50) is 3.97 nM.

Take B6: the EC50 is 1.19 nM.

For B7, the EC50 came out at 0.78 nM.

B8: the concentration giving a half-maximal response (EC50) stood at 0.86 nM.

As for B9, the EC50 worked out at 0.95 nM.

Take B10: the EC50 turned out to be 2.15 nM.

B11: the EC50 was 0.99 nM.

In the case of B12, the EC50 was found to be 1.99 nM.

Regarding B13, the binding result is reported as “no binding”.

In the case of B14, the 50% effective concentration (EC50) was determined as 6.85 nM.
